This note sets out measurements from PMC11187062.

What is called Kd is a measure of binding affinity in units of concentration.

B1: human DPPA3, residues 81–118 (recombinant) [human] / human UHRF1 PHD finger, residues 299–366 [human] (parent)
chain 1: SRRGVRTLLSVQREKMARLRYMLLGGVRTHERRPTNKE
chain 2: GPSCKHCKDDVNRLCRVCACHLCGGRQDPDKQLMCDECDMAFHIYCLDPPLSSVPSEDEWYCPECRND

Variants of B1 are the subject of this experiment. As to the kind of experiment: ITC. As to conditions: with human UHRF1 PHD finger.
Consider chain 1 SRRGARTLLSVQREKMARLRYMLLGGVRTHERRPTNKE, for which the dissociation constant Kd was determined as 1610 nM.
